Measured values taken from the Human Domainome abundance scans (Beltran et al. 2025).

B1: Histone-lysine N-methyltransferase 2A, residues 1148 to 1194; numbered along this chain, Q03164 (parent)
chain: KGRRSRRCGQCPGCQVPEDCGVCTNCLDKPKFGGRNIKKQCCKMRKC
B2: RNA-binding E3 ubiquitin-protein ligase MEX3C, residues 325 to 391; numbered along this chain, Q5U5Q3 (parent)
chain: GQTTVQVRVPYRVVGLVVGPKGATIKRIQQQTHTYIVTPSRDKEPVFEVTGMPENVDRAREEIEMHI

Variants of: B1
Test: abundance fitness (aPCA) (normalised: wild type 0, dead -1); higher = more abundant; growth selection in yeast, the domain comes from the species named
Conditions: Homo sapiens

Abundance fitness of substitutions, site by site:
K46: W -0.31 | S -0.12 | C -0.17 | H -0.02 | Y -0.128 | A 0.206 | I 0.356 | N -0.728 | G -0.145 | V 0.039 | D 0.231 | E 0.105 | F -0.21 | P -0.341 | Q 0.153 | R -0.205 | M 0.074
C47: T -0.884 | D -0.347 | Y -0.967 | R -0.925 | W -0.527 | P -0.789 | S -0.619 | A -0.695 | F -0.52
M44: C -0.484 | D -0.242 | Q 0.037 | H -0.181 | A -0.012 | W -0.151 | I -0.021 | S -0.335 | V -0.213 | T -0.283 | G -0.251 | N -0.253 | K -0.037 | R -0.023 | Y -0.205 | P -0.659 | E 0.003
R45: S -0.349 | L -0.527 | Y -0.735 | D -0.411 | H -0.737 | V -0.492 | G -0.429 | M -0.308 | P -0.67 | T -0.597 | E -0.682 | W -0.662 | A -0.659 | I -0.439 | K -0.529 | Q -0.52
K43: Q -0.215 | Y 0.046 | W -0.12 | P -0.85 | S -0.112 | R -0.27 | V 0.108 | T 0.09

Variants of: B2
Test: as above
Conditions: Homo sapiens

Abundance fitness of substitutions, site by site:
R8: F -0.666 | S -0.377 | Y -0.175 | L -0.601 | P -0.18 | K 0.038 | W -0.382 | C -0.675 | I -0.375 | N -0.971 | H -0.345 | M -0.555 | V -0.66 | A -0.608 | Q -0.683 | E -0.52 | T -0.209 | D -0.666 | G -0.763
V13: D 0.057 | P -0.809 | H -0.041 | W -0.098 | A -0.029 | C -0.024 | R -0.25 | G -0.153 | L 0.114 | K 0.216 | S 0.127 | Q 0.169 | I -0.366 | E -0.334 | M 0.075 | T -0.006 | F 0.022 | N -0.207 | Y -0.073
P10: D -0.372 | V -0.707 | K -0.563 | A -0.708 | S -0.793 | M -0.885 | W -0.841 | I -0.634 | G -0.767 | F -1.1 | L -0.693 | Q -0.754 | H -0.825 | T -0.611 | C -0.655
L16: F -0.139 | D -0.058 | W -0.122 | R 0.075 | G -0.506 | E -0.133 | Q 0.034 | P -0.615 | Y -0.228 | V -0.353 | I -0.174 | N -0.312 | M 0.316 | K -0.192 | T -0.095 | H -0.047 | A -0.052 | C -0.213
V5: K -0.18 | A -0.34 | G -0.387 | F -0.363 | I 0.2 | L -0.016 | M -0.452 | T -0.478 | S -0.74 | W -0.83 | E -0.667 | C -0.475 | R -0.336 | H -0.822 | D -1.05 | Q -0.294
T3: E -0.385 | P -0.787 | V 0.008 | G -0.519 | L -0.163 | W -1.1 | N -0.672 | S -0.309 | A -0.799 | Y -0.296 | Q -0.258 | C -0.256 | D -0.45 | I 0.306 | H -0.252 | M -0.556
G1: D -0.136 | A -0.27 | S -0.094 | V -0.283 | R -0.022
G15: H -0.059 | K -0.235 | A -0.067 | W -0.779 | V -0.986 | Y -0.691 | I -0.872 | N -0.234 | Q -0.181 | S -0.128 | C -0.59 | R -0.212 | P -0.093 | D 0.018 | M -0.459 | E -0.121
Y11: F -0.514 | A 0.171 | N -0.014 | Q 0.233 | K 0.369 | L -0.029 | M 0.154 | R 0.262 | W 0.136 | H 0.17 | G -0.013 | P 0.128 | E 0.402 | S 0.236
V14: D -0.529 | F -0.315 | G -0.746 | M -0.185 | S -0.603 | T -0.524 | R -0.372 | C -0.89 | Y -0.51 | I 0.114 | P -0.703 | Q -0.881 | E -0.51 | W -0.349 | K -0.636
V7: C -0.769 | S -0.516 | L -0.537 | A -0.731 | N -0.987 | Y -0.717 | T -0.802 | Q -0.603 | D -0.571 | W -0.92 | H -0.603 | F -0.124 | P -0.567 | I 0.092 | E -0.39 | R -0.851 | G -0.809 | K -0.47
V17: A -0.436 | I 0.013 | L -0.415 | R -0.751 | F -0.711 | H -0.149 | E -0.537 | T -0.524 | S -0.872 | W -0.635 | M -0.741 | Q -0.529 | K -0.533 | D -0.702
Q2: L 0.017 | E -0.022 | F 0.057 | Y -0.047 | S -0.356 | G -0.403 | I -0.174 | P -0.181 | M -0.001 | A -0.409 | D -0.155 | W -0.302 | V -0.069 | H 0.017 | K 0.145 | R -0.208 | N -0.061 | C -0.148
R12: T -0.201 | Y -0.064 | H -0.189 | G 0.143 | I -0.373 | V -0.652 | K 0.063 | M -0.401 | A 0.001 | Q 0.013 | S 0.175 | F -0.11 | E 0.136 | L -0.588 | P 0.054 | N 0.141 | D 0.159
V9: I -0.54 | L -0.873 | P -0.825 | E -0.733 | G -0.551 | K -0.776 | W -0.767 | T -0.84 | M -0.641 | R -0.609 | N -0.954 | H -0.928 | D -0.834 | A -0.657 | F -0.933 | Q -0.993
Q6: L -0.022 | M -0.151 | Y 0.269 | S -0.056 | T -0.247 | H -0.099 | A -0.1 | D -0.657 | G -0.16 | V 0.071 | C -0.028 | P -0.3 | E -0.218 | R 0.159 | W -0.513
T4: I -0.622 | R -0.425 | G -0.646 | D -0.631 | L -0.756 | W -0.832 | N -0.812 | V -0.477 | M -0.751 | F -0.881 | K -0.414 | E -1.06 | A -0.523 | H -0.38 | C -0.718 | S -0.757
